# Assay results taken from IntAct's records for PubMed 25910212.
# B1: EF-hand domain-containing protein 1 (Homo sapiens), Q5JVL4 (parent)
# chain: MVSNPVHGLPFLPGTSFKDSTKTAFHRSQTLSYRNGYAIVRRPTVGIGGDRLQFNQLSQAELDELASKAPVLTYGQPKQAPPADFIPAHVAFDKKVLKFDAYFQEDVPMSTEEQYRIRQVNIYYYLEDDSMSVIEPVVENSGILQGKLIKRQRLAKNDRGDHYHWKDLNRGINITIYGKTFRVVDCDQFTQVFLESQGIELNPPEKMALDPYTELRKQPLRKYVTPSDFDQLKQFLTFDKQVLRFYAIWDDTDSMYGECRTYIIHYYLMDDTVEIREVHERNDGRDPFPLLMNRQRVPKVLVENAKNFPQCVLEISDQEVLEWYTAKDFIVGKSLTILGRTFFIYDCDPFTRRYYKEKFGITDLPRIDVSKREPPPVKQELPPYNGFGLVEDSAQNCFALIPKAPKKDVIKMLVNDNKVLRYLAVLESPIPEDKDRRFVFSYFLATDMISIFEPPVRNSGIIGGKYLGRTKVVKPYSTVDNPVYYGPSDFFIGAVIEVFGHRFIILDTDEYVLKYMESNAAQYSPEALASIQNHVRKREAPAPEAESKQTEKDPGVQELEALIDTIQKQLKDHSCKDNIREAFQIYDKEASGYVDRDMFFKICESLNVPVDDSLVKELIRMCSHGEGKINYYNFVRAFSN
# partner: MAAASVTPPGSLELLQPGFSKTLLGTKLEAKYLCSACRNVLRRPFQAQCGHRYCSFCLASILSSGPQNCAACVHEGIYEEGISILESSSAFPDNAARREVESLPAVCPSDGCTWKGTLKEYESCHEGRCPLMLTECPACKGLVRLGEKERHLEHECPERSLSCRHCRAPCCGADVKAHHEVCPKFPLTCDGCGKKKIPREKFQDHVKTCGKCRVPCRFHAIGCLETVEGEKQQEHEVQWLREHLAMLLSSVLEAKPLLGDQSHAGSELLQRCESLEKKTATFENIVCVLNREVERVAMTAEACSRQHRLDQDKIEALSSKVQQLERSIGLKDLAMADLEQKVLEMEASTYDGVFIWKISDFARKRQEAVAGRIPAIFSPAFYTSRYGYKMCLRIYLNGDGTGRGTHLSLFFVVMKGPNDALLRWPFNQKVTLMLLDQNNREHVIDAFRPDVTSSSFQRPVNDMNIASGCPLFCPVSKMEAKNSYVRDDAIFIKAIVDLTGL
# B2: Galactose-1-phosphate uridylyltransferase (Homo sapiens), P07902 (parent)
# chain: MSRSGTDPQQRQQASEADAAAATFRANDHQHIRYNPLQDEWVLVSAHRMKRPWQGQVEPQLLKTVPRHDPLNPLCPGAIRANGEVNPQYDSTFLFDNDFPALQPDAPSPGPSDHPLFQAKSARGVCKVMCFHPWSDVTLPLMSVPEIRAVVDAWASVTEELGAQYPWVQIFENKGAMMGCSNPHPHCQVWASSFLPDIAQREERSQQAYKSQHGEPLLMEYSRQELLRKERLVLTSEHWLVLVPFWATWPYQTLLLPRRHVRRLPELTPAERDDLASIMKKLLTKYDNLFETSFPYSMGWHGAPTGSEAGANWNHWQLHAHYYPPLLRSATVRKFMVGYEMLAQAQRDLTPEQAAERLRALPEVHYHLGQKDRETATIA
# B3: Iodotyrosine deiodinase 1 (Homo sapiens), Q6PHW0 (parent)
# chain: MYFLTPILVAILCILVVWIFKNADRSMEKKKGEPRTRAEARPWVDEDLKDSSDLHQAEEDADEWQESEENVEHIPFSHNHYPEKEMVKRSQEFYELLNKRRSVRFISNEQVPMEVIDNVIRTAGTAPSGAHTEPWTFVVVKDPDVKHKIRKIIEEEEEINYMKRMGHRWVTDLKKLRTNWIKEYLDTAPILILIFKQVHGFAANGKKKVHYYNEISVSIACGILLAALQNAGLVTVTTTPLNCGPRLRVLLGRPAHEKLLMLLPVGYPSKEATVPDLKRKPLDQIMVTV
# partner: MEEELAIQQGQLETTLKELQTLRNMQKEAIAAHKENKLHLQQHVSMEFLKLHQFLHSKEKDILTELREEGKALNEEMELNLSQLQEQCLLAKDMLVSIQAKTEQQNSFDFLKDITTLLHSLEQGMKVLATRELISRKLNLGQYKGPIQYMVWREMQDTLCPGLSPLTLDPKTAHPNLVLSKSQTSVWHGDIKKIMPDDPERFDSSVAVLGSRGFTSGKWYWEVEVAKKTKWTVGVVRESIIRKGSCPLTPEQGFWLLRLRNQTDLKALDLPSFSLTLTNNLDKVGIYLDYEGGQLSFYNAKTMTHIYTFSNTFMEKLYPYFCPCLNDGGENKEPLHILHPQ
# B4: ATP synthase mitochondrial F1 complex assembly factor 2 (Homo sapiens), Q8N5M1 (parent)
# chain: MWRSCLRLRDGGRRLLNRPAGGPSASMSPGPTIPSPARAYAPPTERKRFYQNVSITQGEGGFEINLDHRKLKTPQAKLFTVPSEALAIAVATEWDSQQDTIKYYTMHLTTLCNTSLDNPTQRNKDQLIRAAVKFLDTDTICYRVEEPETLVELQRNEWDPIIEWAEKRYGVEISSSTSIMGPSIPAKTREVLVSHLASYNTWALQGIEFVAAQLKSMVLTLGLIDLRLTVEQAVLLSRLEEEYQIQKWGNIEWAHDYELQELRARTAAGTLFIHLCSESTTVKHKLLKE
# partner: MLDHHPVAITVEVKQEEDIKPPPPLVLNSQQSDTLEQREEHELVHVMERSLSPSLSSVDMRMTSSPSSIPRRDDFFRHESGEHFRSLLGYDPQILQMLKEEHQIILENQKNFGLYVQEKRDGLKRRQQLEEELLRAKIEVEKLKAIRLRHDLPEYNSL
# B5: Mothers against decapentaplegic homolog 3 (Homo sapiens), P84022 (parent)
# chain: MSSILPFTPPIVKRLLGWKKGEQNGQEEKWCEKAVKSLVKKLKKTGQLDELEKAITTQNVNTKCITIPRSLDGRLQVSHRKGLPHVIYCRLWRWPDLHSHHELRAMELCEFAFNMKKDEVCVNPYHYQRVETPVLPPVLVPRHTEIPAEFPPLDDYSHSIPENTNFPAGIEPQSNIPETPPPGYLSEDGETSDHQMNHSMDAGSPNLSPNPMSPAHNNLDLQPVTYCEPAFWCSISYYELNQRVGETFHASQPSMTVDGFTDPSNSERFCLGLLSNVNRNAAVELTRRHIGRGVRLYYIGGEVFAECLSDSAIFVQSPNCNQRYGWHPATVCKIPPGCNLKIFNNQEFAALLAQSVNQGFEAVYQLTRMCTIRMSFVKGWGAEYRRQTVTSTPCWIELHLNGPLQWLDKVLTQMGSPSIRCSSVS
# partner: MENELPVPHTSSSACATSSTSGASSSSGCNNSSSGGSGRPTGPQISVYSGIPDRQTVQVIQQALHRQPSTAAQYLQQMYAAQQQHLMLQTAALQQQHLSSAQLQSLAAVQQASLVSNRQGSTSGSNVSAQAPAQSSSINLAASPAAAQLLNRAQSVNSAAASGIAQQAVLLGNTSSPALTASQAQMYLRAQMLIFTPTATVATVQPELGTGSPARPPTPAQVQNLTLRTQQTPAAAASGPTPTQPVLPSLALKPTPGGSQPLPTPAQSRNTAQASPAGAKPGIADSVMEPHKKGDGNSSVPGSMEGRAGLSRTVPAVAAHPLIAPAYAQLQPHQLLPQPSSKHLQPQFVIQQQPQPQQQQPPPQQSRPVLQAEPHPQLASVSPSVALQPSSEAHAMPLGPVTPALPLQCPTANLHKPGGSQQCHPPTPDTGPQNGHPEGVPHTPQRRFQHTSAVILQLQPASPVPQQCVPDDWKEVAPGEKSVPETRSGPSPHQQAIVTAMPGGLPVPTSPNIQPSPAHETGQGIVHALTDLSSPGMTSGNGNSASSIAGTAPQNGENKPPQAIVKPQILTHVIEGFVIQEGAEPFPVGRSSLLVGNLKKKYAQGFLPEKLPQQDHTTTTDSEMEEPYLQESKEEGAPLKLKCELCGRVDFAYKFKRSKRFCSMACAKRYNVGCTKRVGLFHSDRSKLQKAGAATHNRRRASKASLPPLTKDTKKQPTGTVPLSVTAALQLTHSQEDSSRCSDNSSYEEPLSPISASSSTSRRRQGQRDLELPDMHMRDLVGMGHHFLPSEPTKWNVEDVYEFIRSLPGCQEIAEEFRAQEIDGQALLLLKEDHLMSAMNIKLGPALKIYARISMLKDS
# B6: Transmembrane protein 43 (Homo sapiens), Q9BTV4 (parent)
# chain: MAANYSSTSTRREHVKVKTSSQPGFLERLSETSGGMFVGLMAFLLSFYLIFTNEGRALKTATSLAEGLSLVVSPDSIHSVAPENEGRLVHIIGALRTSKLLSDPNYGVHLPAVKLRRHVEMYQWVETEESREYTEDGQVKKETRYSYNTEWRSEIINSKNFDREIGHKNPSAMAVESFMATAPFVQIGRFFLSSGLIDKVDNFKSLSLSKLEDPHVDIIRRGDFFYHSENPKYPEVGDLRVSFSYAGLSGDDPDLGPAHVVTVIARQRGDQLVPFSTKSGDTLLLLHHGDFSAEEVFHRELRSNSMKTWGLRAAGWMAMFMGLNLMTRILYTLVDWFPVFRDLVNIGLKAFAFCVATSLTLLTVAAGWLFYRPLWALLIAGLALVPILVARTRVPAKKLE
# partner: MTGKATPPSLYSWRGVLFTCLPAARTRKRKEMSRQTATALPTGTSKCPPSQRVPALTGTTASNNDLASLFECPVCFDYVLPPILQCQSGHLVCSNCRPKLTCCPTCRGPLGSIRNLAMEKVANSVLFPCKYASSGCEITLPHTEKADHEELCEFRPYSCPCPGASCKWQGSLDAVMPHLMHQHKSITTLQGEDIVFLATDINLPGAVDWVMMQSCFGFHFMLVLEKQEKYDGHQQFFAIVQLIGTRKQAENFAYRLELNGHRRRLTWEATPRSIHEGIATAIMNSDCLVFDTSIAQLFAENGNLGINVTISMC
# B7: Methylmalonyl-CoA epimerase, mitochondrial (Homo sapiens), Q96PE7 (parent)
# chain: MARVLKAAAANAVGLFSRLQAPIPTVRASSTSQPLDQVTGSVWNLGRLNHVAIAVPDLEKAAAFYKNILGAQVSEAVPLPEHGVSVVFVNLGNTKMELLHPLGRDSPIAGFLQKNKAGGMHHICIEVDNINAAVMDLKKKKIRSLSEEVKIGAHGKPVIFLHPKDCGGVLVELEQA
# Variants of: B1
# Conditions: with traf2_human TRAF2, Q12933
row,Variant,effect of a mutation on the interaction
1,T508R,with no effect
2,M448T,with no effect
3,A394S,disrupting interaction strength

# Variants of: B2
# Conditions: with TNK2, Q07912-2
# Sequence of TNK2, Q07912-2 (Q07912 other isoform, or with tags, fused parts or gaps): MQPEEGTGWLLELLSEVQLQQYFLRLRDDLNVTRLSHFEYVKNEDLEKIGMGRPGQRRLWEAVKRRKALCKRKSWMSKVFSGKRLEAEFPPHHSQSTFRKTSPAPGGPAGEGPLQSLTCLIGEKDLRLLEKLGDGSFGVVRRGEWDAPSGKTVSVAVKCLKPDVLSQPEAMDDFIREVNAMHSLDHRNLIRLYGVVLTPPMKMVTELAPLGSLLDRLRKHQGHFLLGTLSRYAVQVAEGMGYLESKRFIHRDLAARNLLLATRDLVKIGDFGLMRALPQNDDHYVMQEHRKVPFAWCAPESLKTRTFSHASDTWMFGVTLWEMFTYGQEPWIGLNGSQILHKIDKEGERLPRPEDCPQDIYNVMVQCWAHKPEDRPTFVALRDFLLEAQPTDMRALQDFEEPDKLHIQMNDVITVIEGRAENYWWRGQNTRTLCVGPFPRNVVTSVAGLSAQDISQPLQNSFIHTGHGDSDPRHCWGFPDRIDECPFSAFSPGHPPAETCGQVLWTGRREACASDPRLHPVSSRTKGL
row,Variant,effect of a mutation on the interaction
1,Y34N,with no effect
2,G175D,with no effect
3,R272H,with no effect
4,H319Q,with no effect

# Variants of: B3
# Conditions: with TRIM69, Q86WT6-2
row,Variant,effect of a mutation on the interaction
1,A220T,with no effect
2,R101W,with no effect
3,I116T,with no effect

# Variants of: B4
# Conditions: with FSBP
row,Variant,effect of a mutation on the interaction
1,W94R,disrupting interaction strength

# Variants of: B5
# Conditions: with PHC2, Q8IXK0-5
row,Variant,effect of a mutation on the interaction
1,N197I,with no effect
2,I170V,with no effect

# Variants of: B6
# Conditions: with SIAH1, Q8IUQ4-2
row,Variant,effect of a mutation on the interaction
1,S358L,with no effect

# Variants of: B7
# Conditions: with AGTRAP
row,Variant,effect of a mutation on the interaction
1,A76V,with no effect

# Variants of: B7
# Conditions: with CMTM5, Q96DZ9-2
# Sequence of CMTM5, Q96DZ9-2 (Q96DZ9 other isoform, or with tags, fused parts or gaps): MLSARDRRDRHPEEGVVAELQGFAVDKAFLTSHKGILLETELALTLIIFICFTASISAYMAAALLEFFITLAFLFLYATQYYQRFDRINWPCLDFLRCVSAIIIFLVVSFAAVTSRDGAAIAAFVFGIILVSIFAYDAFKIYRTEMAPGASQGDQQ
row,Variant,effect of a mutation on the interaction
1,A76V,with no effect
